According to publication PMC11758708, “Natural variation in MdNAC5 contributes to fruit firmness and ripening divergence in apple”:

Target: MdNAC5A (Malus x domestica (Fuji / Cripp's Pink), UniProt A0A498K6T8 1-364)
Test: EMSA; EMSA/Gel-Shift Kit (Beyotime) per instructions; buffer, salt, pH and temperature not stated
Conditions: protein: recombinant; tags: His (pET-32a); chain copies: 2; label: 3' biotin (both strands); blunt

Chain of MdNAC5A (A0A498K6T8 entry or part of it): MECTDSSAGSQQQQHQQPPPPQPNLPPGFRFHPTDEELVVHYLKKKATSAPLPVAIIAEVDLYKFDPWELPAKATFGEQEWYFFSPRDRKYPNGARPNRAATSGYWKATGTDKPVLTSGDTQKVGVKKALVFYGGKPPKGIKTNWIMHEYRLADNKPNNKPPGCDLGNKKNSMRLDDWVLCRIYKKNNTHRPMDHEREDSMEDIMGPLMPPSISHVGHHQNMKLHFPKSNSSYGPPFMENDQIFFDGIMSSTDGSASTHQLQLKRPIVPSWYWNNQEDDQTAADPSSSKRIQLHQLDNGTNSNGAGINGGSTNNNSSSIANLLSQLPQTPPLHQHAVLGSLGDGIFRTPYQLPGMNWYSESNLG

B1: MdACS1 probe (dsDNA)
DNA 1: CCTGTGACAATATTACATGTGGCATGTCAATTGAGA
DNA 2: TCTCAATTGACATGCCACATGTAATATTGTCACAGG
B1: binds.
